Source: patent US20250387450A1 (AIKIUM, published 2025)
Numbering of substitutions follows the chain as printed.

B1: engineered scaffold protein S078 (designed binder)
chain: GDTRPRFLWQLKFECHFFNGTERVRLLERCIYNQEESVRFDSDVGEYRAVTELGRPDAEYWNSQKDLLEQRRAAVDTYCRHNYGVGESFTVQRRSGGGIKEEHVIIQAEFYLNPDQSGEFMFDFDGDEIFHVDMAKKETVWRLEEFGRFASFEAQGALANIAVDKANLEIMTKRSNYTGGSHHHHHHLE
B2: engineered scaffold protein S068 (designed binder)
chain: GDTRPRFLWQLKFECHFFNGTERVRLLERCIYNQEESVRFDSDVGEYRAVTELGRPDAEYWNSQKDLLEQRRAAVDTYCRHNYGVGESFTVQRRVEPKVTVYPSKTQPLQHHNLLVCSVSGFYPGSIEVRWFRNGQEEKAGVVSTGLIQNGDWTFQTLVMLETVPRSGEVYTCQVEHPSVTSPLTVEWRASGGGGSGGGGSGGGGIKEEHVIIQAEFYLNPDQSGEFMFDFDGDEIFHVDMAKKETVWRLEEFGRFASFEAQGALANIAVDKANLEIMTKRSNYTPITNVPPEVTVLTNSPVELREPNVLICFIDKFTPPVVNVTWLRNGKPVTTGVSETVFLPREDHLFRKFHYLPFLPSTEDVYDCRVEHWGLDEPLLKHWEFDAPSGGSHHHHHHLE
B3: engineered scaffold protein S143 (designed binder)
chain: MGDTRPRFLWQLKFECHFFNGTERVRLLERCIYNQEESVRFDSDVGEYRAVTELGRPDAEYWNSQKDLLEQRRAAVDTYCRHNYGVGESFTVQRRVIKEEHVIIQAEFYLNPDQSGEFMFDFDGDEIFHVDMAKKETVWRLEEFGRFASFEAQGALANIAVDKANLEIMTKRSNYTPTINGGSHHHHHH
B4: engineered scaffold protein S077 (designed binder)
chain: KPVSKMRMATPLLMQALPMASGGGGSGGGGDTRPRFLWQLKFECHFFNGTERVRLLERCIYNQEESVRFDSDVGEYRAVTELGRPDAEYWNSQKDLLEQRRAAVDTYCRHNYGVGESFTVQRRSGGGIKEEHVIIQAEFYLNPDQSGEFMFDFDGDEIFHVDMAKKETVWRLEEFGRFASFEAQGALANIAVDKANLEIMTKRSNYTGGSHHHHHHLE
B5: engineered scaffold protein S098 (designed binder)
chain: PENYLFQGRQECNGTQFLERYIYNREEFVRFDEFRAVGRPDEEYWNSQKDILEEERAVPDRMCRHNYELGGPMTLQRRVQPRVNIKADHVSTYAAFVQRPFMFEFDEDEMFYVDLHLEEFGQAFSFEAQGGLANIAILNNNLNTRSNHTQATNDPPHHHHHHLE
B6: engineered scaffold protein S134 (designed binder)
chain: MVKYHHHHHHGGSENLYFQGMGDTRPRFLWQPKRECHFFNGTERVRFLDRYFYNQEESVRFDSDVGEFRAVTELGRPDAEYWNSQKDILEQARAAVDTYCRHNYGVVESFTVQRRVIKEEHVIIQAEFYLNPDQSGEFMFDFDGDEIFHVDMAKKETVWRLEEFGRFASFEAQGALANIAVDKANLEIMTKRSNYTPITN
B7: engineered scaffold protein S058 (designed binder)
chain: GSHSMRYNYTSVSRPGRGEPRFISEGYVDDTQFVRFDSDAASPREEPRAPWIEQEGPEYWDRNTQIYKAQAQTDRESLRNLRGYYNQSEAGSHTLQSMYGCDVGPDGRLLRGHDQYYYDGKDYISLNEDLRSWTAADTAAQITQRKWEAAREAEQRRAYLEGECVEWLRRYLENGKDKLERADGGSHHHHHHLE
B8: engineered scaffold protein S065 (designed binder)
chain: B7 chain with N8F, E25V, Y59A, Y117A, Y123S, S125A, K146Y, W167H, Y171V
B9: engineered scaffold protein S193 (designed binder)
chain: MGSKARMATGALAQAGGSGGSMIKEEHVINQAEYYLNPDQSGEFKFDFDGDEIFHVDMAKKETVWRLEEFGRFASFEAQGALAHIAVDKANLEIMTKRSNYTPMGDTRPRFLWQLKYECHFFNGTERVRLNERCIYNQEESVRFDSDVGEYRAVTELGRPDAEQWNSQKDHLEQRRAAVDTKCRHNYGVGESFTVQGGSHHHHHH
B10: S180 (designed binder)
single chain: MKEEHVIIQAEFYLNPDQSGEFMFDFDGDEIFHVDMAKKETVWRLEEFGRFASFEAQGALANIAVDKANLEIMTKRSNYTPITNTRPRFLWQPKRECHFFNGTERVRFLDRYFYNQEESVRFDSDVGEFRAVTELGRPDAEYWNSQKDILEQARAAVDTYCRHNYGVVESFTVQRRVQGGSHHHHHHLE
notes: also called engineered scaffold protein S180
B11: S189 (designed binder)
single chain: MGIKEEHVINQAEYCLNPDQSGEFKFDFDGDEIFHVDMAKKETVWRLEEFGRFASFEAQGALAHIAVDCANLEIMTKRSNYTPMGDTRPRFLWQLKYECHFFNGTERVRLNERCIYNQEESVRFDSDVGEYRAVTELGRPDAEQWNSQKDHLEQRRAAVDTKCRHNYGVGESFTVQGGSHHHHHH
notes: also called engineered scaffold protein S189

Target: T1, KAAG1 disordered region peptide, PGAAAAHLPRWPPPQLAASRREA (biotin label)
T1 construct: also called KAAG1 Peptide
T1 peptide: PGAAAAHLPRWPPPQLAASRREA
Assay: modified sandwich ELISA, grade by the table's key
Procedure: (§1) Binder proteins were coated on the surface of a high binding capacity 96 well plate by incubating 100 μL of protein at 5 μg/mL in a coating solution (10 mM Tris pH 8.8, 50 mM NaCl), overnight at 4 C. The next morning, the coating solution was aspirated out and wells were washed once with 300 μL ELISA wash buffer (1×PBS, 0.05% Tween-20) and solution was aspirated out. The wells were blocked with 200 μL of a blocking buffer (1×PBS, 0.05% Tween-20, 3% BSA) at room temperature for 1 hour. After one hour, the blocking solution was aspirated out and 100 μL of biotinylated polypeptide in a binding buffer (1×PBS, 0.05% Tween-20, 0.5% BSA) at various concentrations was added to the appropriate well and incubated for 20 minutes. Peptide solution was aspirated out after 20 minutes and wells were washed 5 times with 300 μL of ELISA wash buffer. To detect the biotinylated peptide, 100 μL of streptavidin-HRP (50 ng/ml) was added to each well and incubated for 1 hour. The wells were subsequently washed 5 times with 300 μL of ELISA wash buffer. 100 μL of QuantaBlu Fluorogenic Peroxidase substrate solution was added to each well, incubated for 30 minutes and reaction stopped by adding 100 μL of stop solution. Fluorescent signal from each well was measured using a Biotek Cytation5 plate reader by exciting the fluorophore at […] and measuring emission at 420 nm. Fluorescent signals were plotted as a function of polypeptide concentration.

Binder	binding result
B1	no binding (tested: <5000 (fluorescence, key))
B2	no binding (tested: <5000 (fluorescence, key))
B3	no binding (tested: <5000 (fluorescence, key))
B4	no binding (tested: <5000 (fluorescence, key))
B5	no binding (tested: <5000 (fluorescence, key))
B6	no binding (tested: <5000 (fluorescence, key))

Target: T2, Urotensin-2 receptor N-terminal peptide, MALTPESPSSFPGLAATGSSVPEPPGGPNATLNSSWASPTEPSSLEDLVATGTI (biotin label)
T2 construct: also called Urotensin IIR; GPCR2 (Urotensin II)
T2 peptide: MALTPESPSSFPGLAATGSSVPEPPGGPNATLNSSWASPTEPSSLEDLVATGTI
Assay: modified sandwich ELISA, grade by the table's key
Procedure: as §1

Binder	binding result
B1	no binding (tested: <5000 (fluorescence, key))
B2	no binding (tested: <5000 (fluorescence, key))
B7	no binding (tested: <5000 (fluorescence, key))
B8	no binding (tested: <5000 (fluorescence, key))
B4	no binding (tested: <5000 (fluorescence, key))
B5	no binding (tested: <5000 (fluorescence, key))

Target: T3, TNFRSF13B disordered region peptide, LPPELRRQRSGEVENNSDNSGRYQ (biotin label)
T3 construct: also called TNFRSF13B Peptide
T3 peptide: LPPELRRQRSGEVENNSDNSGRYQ
Assay: modified sandwich ELISA, grade by the table's key
Procedure: as §1

Binder	binding result
B1	no binding (tested: <5000 (fluorescence, key))
B2	no binding (tested: <5000 (fluorescence, key))
B8	no binding (tested: <5000 (fluorescence, key))
B4	no binding (tested: <5000 (fluorescence, key))
B5	no binding (tested: <5000 (fluorescence, key))

Target: T4, CD74 disordered region peptide (CLIP), PPKPVSKMRMATPLLMQALPMGALP (biotin label)
T4 construct: also called CD74 Peptide
T4 peptide: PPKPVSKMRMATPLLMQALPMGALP
Assay: modified sandwich ELISA, fluorescence grade by the table's key
Procedure: as §1

Binder	fluorescent signal [fluorescentsignal]
B1	> 400000
B2	> 400000
B7	> 400000
B8	> 400000
B3	> 400000
B4	> 400000
B5	> 400000
B6	100000 to 250000

Target: T5, CYSLTR2 N-terminal disordered region peptide, MERKFMSLQPSISVSEMEPNGTFSNNNSRNCTIENFKREFFP (biotin label)
T5 construct: also called CysLT2; CysLT2r
T5 peptide: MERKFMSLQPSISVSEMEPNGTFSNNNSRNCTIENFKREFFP
Assay: as above
Procedure: as §1

Binder	fluorescent signal [fluorescentsignal]
B1	50000 to 100000
B4	100000 to 250000
B5	100000 to 250000

Target: T6, GMERKFMSLQPSISVSEMEPNGTFSNNNSRNCTIENFKREFFP (biotinylated, position not given)
T6 construct: also called CYSLTR2 (longer peptide of the disordered region)
T6 peptide: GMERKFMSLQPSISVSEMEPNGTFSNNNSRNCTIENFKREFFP
Assay: ELISA: scaffold coated on plate, biotinylated peptide titrated, streptavidin-HRP fluorescence
Procedure: as §1

Binder	binding result
B9	binds
B10	binds
B11	binds

Target: T1, KAAG1 disordered region peptide, …
Assay: as above
Procedure: as §1

Binder	binding result
B9	no binding (tested: 10000 nM)
B8	no binding (tested: 10000 nM)

Target: T3, TNFRSF13B disordered region peptide, …
Assay: as above
Procedure: as §1

Binder	binding result
B9	no binding (tested: 10000 nM)

Target: T7, CYSLTR2 short linear epitope peptide, SISVSEMEPNGTFSNNNSRNC (N-terminal biotin)
T7 peptide: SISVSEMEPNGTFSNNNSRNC
Assay: as above
Procedure: as §1

Binder	binding result
B9	binds
B10	binds
B11	binds

Target: T8, KCNA6 short linear epitope peptide, QQQEQQPASGGGGQNGQQAMS (biotin label)
T8 construct: also called KCNA6 Peptide
T8 peptide: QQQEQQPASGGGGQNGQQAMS
Assay: as above
Procedure: as §1

Binder	binding result
B9	no binding (tested: 10000 nM)

Target: T9, CD40LG short linear epitope peptide, NKEETKKENSFEMQKGDQNPQIAAH (biotin label)
T9 construct: also called CD40LG Peptide
T9 peptide: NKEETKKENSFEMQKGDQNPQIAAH
Assay: as above
Procedure: as §1

Binder	binding result
B9	no binding (tested: 10000 nM)
